Columns and labels:
[1] = system: serum IgA from Dermatitis herpetiformis (DH) patients; experiment: Dermatitis herpetiformis serum IgA reactivity ELISA; type: binding, human; settings: 5 μg/ml coated; n=12 DH patients, 2 healthy controls; FIG. 18
Procedure: ELISA plates were coated with 100 μl of 5 μg/ml rGamma gliadin 1, rGamma gliadin 2, α-gliadin peptide p56-75 (α-gli peptide), deamidated α-gliadin peptide (D) and Human serum albumin. The bound proteins were probed with sera from Dermatitis herpetiformis (DH) patients and healthy controls. IgA reactivity to the proteins was detected using mouse anti-human IgA1/A2 and sheep anti-mouse IgG-HRP labelled antibody. (n=12 DH patients and 2 healthy controls).

[2] = system: serum IgA of celiac disease patients; experiment: IgA reactivity ELISA to wheat food antigens; type: binding, human; settings: 5 μg/ml coated, sera 1:100, read at 405 nm, FIG. 15
Procedure: 100 μl of the wheat proteins GG1 (Gamma gliadin 1), GG2 (Gamma gliadin 2), α-purothionin, GluB3-23, C-175, Mal 82 and Mal 43 of a concentration of 5 μg/ml were coated overnight at 4° C. onto Nunc Maxisorp Elisa plates. The remaining free binding sites were blocked with 1% BSA in PBST for 2 hours at room temperature. 100 μl of sera from celiac disease patients, celiac patients on diet and negative controls were added at a dilution of 1:100 in 0.5% BSA in PBST buffer and incubated for 12 hours at 4° C. The plates were washed 5 times in PBST buffer and 100 μl of mouse anti-human IgA1/A2 (BD Biosciences) diluted to 1:1000 in 0.5% BSA/PBST buffer was added and incubated at room temperature for 5 hours. The plates were then washed 5 times with PBST and 100 μl of sheep anti-mouse IgG conjugated with Horse radish peroxidise (HRP) (Amersham) antibodies were added and incubated at 37° C. for one hour.

[3] = system: serum IgE antibodies from patients suffering from wheat food allergy; experiment: IgE reactivity dot blot with sera from wheat food allergic patients; type: binding, human; settings: for patients showing IgE reactivity: 0.5 μg dotted protein, sera 1:10; for patients reacting to the recombinant protein (IgE): FIG. 12
Procedure: GluB3-23 is a major allergen in wheat dependent food allergy IgE reactivity of wheat food allergic patients to GluB3-23 and C175 was tested by dot blot analysis shown in FIG. 10 and FIG. 11. 0.5 μg of purified recombinant proteins (GluB3-23 and C175), 2 μg aqueous wheat seed (WSE) extract and 0.5 μg of human serum albumin (HSA) were dotted onto nitrocellulose (Whatman Protran nitrocellulose membrane, Sigma Aldrich) strips and after blocking with buffer A (50 mM sodium phosphate buffer, pH7.4, 0.5% w/v BSA, 0.5% v/v Tween-20, 0.05% w/v NaN3) incubated with 1:10 diluted sera from patients suffering from wheat food allergy. Bound IgE Abs were detected with 1:10 diluted ^125I labeled anti human IgE Abs and visualized by autoradiography.
Sera were obtained from populations of patients suffering from wheat food allergy. Patients were selected according to positive case history, positive Skin Prick Test (SPT), double blind or open food challenge or CAP-test (Phadia, Uppsala, Sweden) to wheat.
The recombinant high molecular weight proteins mal43 and mal82, representing partial proteins of Glu-B1, were tested in dot blots with sera from patients from a population shown in FIG. 11. Sera were obtained from patients suffering from wheat food allergy. Patients were selected according to positive case history and positive Skin Prick Test (SPT) or CAP-test (Phadia, Uppsala, Sweden) to wheat. 0.5 μg of purified recombinant proteins (mal43 and mal82), 2 μg aqueous wheat seed (WSE) extract and 0.5 μg of human serum albumin (HSA) were dotted onto nitrocellulose (Whatman Protran nitrocellulose membrane, Sigma Aldrich) strips and after blocking with buffer A incubated with 1:10 diluted patients sera. Bound IgE Abs were detected with 1:10 diluted ^125I labeled anti human IgE Abs and visualized by autoradiography. […] On the basis of WHO/IRIS Allergen Standardization Committee definition (www.allergen.org), an allergen recognized by 10% of the patients is a minor allergen.
The IgE reactivity of dot-blotted recombinant wheat α-purothionin was tested with serum IgE antibodies from patients suffering from wheat food allergy (Table 3). […] 23% of patients from one population (n=13) and 29% of the patients from another population (n=24) reacted to the recombinant α-purothionin. (FIG. 12).

IgE binding to GluB3-23 = experiment: IgE inhibition dot blot (sera pre-incubated with recombinant protein); design: species or system human
Procedure: An inhibition dot blot was performed with patients' sera. […] Bound IgE Abs were detected with ^125I-labelled anti human IgE Abs and visualized by autoradiography, the dot intensity was measured by a gamma counter.

[4] = another wheat food allergy patient population, FIG. 11
[5] = wheat food allergy patient population of FIG. 10
[6] = serum Pat 3, pre-incubated with 10 μg protein
[7] = serum Pat 8, pre-incubated with 10 μg protein
[8] = serum Pat 10, pre-incubated with 10 μg protein
[9] = serum Pat 11, pre-incubated with 10 μg protein
[10] = serum Pat 12, pre-incubated with 10 μg protein

Molecule | IgA reactivity [2] | patients showing IgE reactivity [3, 4] [%] | bound IgE, dot intensity by gamma counter (IgE binding to GluB3-23; [6]) [cpm] | bound IgE, dot intensity by gamma counter (IgE binding to GluB3-23; [8]) [cpm] | bound IgE, dot intensity by gamma counter (IgE binding to GluB3-23; [9]) [cpm] | bound IgE, dot intensity by gamma counter (IgE binding to GluB3-23; [10]) [cpm] | further results
GG1: recombinant gamma gliadin 1 with 6×Histidine at the C terminal end, expressed in E. coli (protein) MNIQVDPSGQVQWLQQQLVPQLQQPLSQQPQQTFPQPQQTFPHQPQQQVPQPQQPQQPFLQPQQPFPQQPQQPFPQTQQPQQPFPQQPQQPFPQTQQPQQPFPQQPQQPFPQTQQPQQPFPQLQQPQQPFPQPQQQLPQPQQPQQSFPQQQRPFIQPSLQQQLNPCKNILLQQSKPASLVSSLWSIIWPQSDCQVMRQQCCQQLAQIPQQLQCAAIHSVVHSIIMQQQQQQQQQQGIDIFLPLSQHEQVGQGSLVQGQGIIQPQQPAQLEAIRSLVLQTLPSMCNVYVPPECSIMRAPFASIVAGIGGQHHHHHH | high |  |  |  |  |  | IgA reactivity, DH patients versus healthy controls [1]: higher IgA reactivity to sera from DH patients than to healthy controls
C175: recombinant protein of clone 175: the three C-terminal regions of GluB3-23 and the hexa-histidine tag (protein) RQQLGQGQQGYYPTSLQPGQKQQAGQGQQSGQGQQGYYPTSPQQSGQGQQPGQGQPGYYPTSPQQSGQWQQPGQGQQPGQGQQSGQWQLVYYPTSPQQQIVLQQRPPFLQQQQPSLPQQPPFSQQQQQLVLPQQQIPFVHPSILQQLNPCKVFLQQQCSPVAMPQSLARSQMLQQSSCHVMQQQCCQQLPQIPQQSRYEAIRAIIYSIILQEQQQVQGSIQTPQQQPQQLGQCVSQPQQQSQQQLGQQPQQQQLAQGTFLQPHQIAQLEVMTSIALRTLPTMCRVNVPLYRTTTSVPFGVGTGVGSYHHHHHH | moderate | 73.1 | 650.0 | 379.1 | 190.0 | 16.2 | patients showing IgE reactivity [3, 5]: 27.3%; % inhibition of IgE binding (IgE binding to GluB3-23; [6]): 22.6%; % inhibition of IgE binding (IgE binding to GluB3-23; [7]): 3.0%; bound IgE, dot intensity by gamma counter (IgE binding to GluB3-23; [7]): 73.9 cpm; % inhibition of IgE binding (IgE binding to GluB3-23; [8]): 0.0%; % inhibition of IgE binding (IgE binding to GluB3-23; [9]): 55.3%; potential to inhibit IgE binding to GluB3-23 (IgE binding to GluB3-23; summary of Table 2): low potential to inhibit IgE binding
mal43: recombinant MBP fusion with part of the repetitive domain of HMW glutenin Glu-B1 and hexa-histidine tag (protein, left off: large carriers) RNSGQQLGQGQPGYYPTSQQSEQRQQPGQGKQPGQGQQGYYPTSPQQSGQGQQLGQGQPGYYPTSPQQSGQGQQSGQGQQGYYPTSPQQSGQGQQPGQGQSGYFPTSRQQSGQGQQPGQGQQSGQGQQGQQPGQGQQAYYPTSSQQSRQRQQAGQWQRPGQGQPGYYPTSPQQPGQEQQSGQAQQSGQWQLVYYPTSPQQPGQLQQPAQGQQPAQGQQSAQEQQPGQAQQSGQWQLVYYPTSPQQPGQLQQPAQGQQGYYPTSPQQSGQGQQGYYPTSSRHHHHHH | moderate | 30.8 |  |  |  |  | 
mal82: recombinant MBP fusion with part of repetitive region and C-terminal non repetitive region of Glu-B1, hexa-histidine tag (protein, left off: large carriers) PTSPQQSGQGQQGYYPTSPQQSGQGQQGYYPTSPQQSGQGQQPGQGQQPRQGQQGYYPISPQQSGQGQQPGQGQQRYYPTSPQQSGQGQQPGHEQQPGQWLQPGQGQQGYYPTSSQQSGQGHQSGQGQQGYYPTSLWQPGQGQQPGQGQQGYASPYHVSAEYQAARLKVAKAQQLAAQLPAMCRLEGSDALSTRQHHHHHH | moderate | 30.8 |  |  |  |  | 
Bet v 1: recombinant protein used for control pre-incubation of sera in the IgE inhibition dot blot (protein) GVFNYETETTSVIPAARLFKAFILDGDNLFPKVAPQAISSVENIEGNGGPGTIKKISFPEGFPFKYVKDRVDEVDHTNFKYNYSVIEGGPIGDTLEKISNEIKIVATPDGGSILKISNKYHTKGDHEVKAEQVKASKEMGETLLRAVESYLLAHSDAYN |  |  | 829.0 | 377.6 | 379.0 | 11.5 | 
GluB3-23: recombinant full length s-LMW glutenin GluB3-23 of wheat without signal peptide, plus hexa-histidine tag (protein) MKTFLIFALLAIVATSAIAQMENSHIPGLERPSQQQPLPPQQTLSHHQQQQPIQQQPQPFSQQQPCSQQQQQPLSQQQQPPFSQQQPPFSQQQQQPLSQQQQPPFSQQQPPFSQQQQPPFSQQQPPFSQQQQPVLPQQPSFSQQQLPPFSQQQSPFSQQQQIVLQQQPPFLQQQQPSLPQQPPFSQQQQQLVLPQQQIPFVHPSILQQLNPCKVFLQQQCSPVAMPQSLARSQMLQQSSCHVMQQQCCQQLPQIPQQSRYEAIRAIIYSIILQEQQQVQGSIQTPQQQPQQLGQCVSQPQQQSQQQLGQQPQQQQLAQGTFLQPHQIAQLEVMTSIALRTLPTMCRVNVPLYRTTTSVPFGVGTGVGSYHHHHHH | moderate | 80.8 | 326.0 | 36.0 | 58.9 | 17.7 | patients showing IgE reactivity [3, 5]: 54.5%; % inhibition of IgE binding (IgE binding to GluB3-23; [6]): 63.3%; % inhibition of IgE binding (IgE binding to GluB3-23; [7]): 100.0%; bound IgE, dot intensity by gamma counter (IgE binding to GluB3-23; [7]): 31.5 cpm; % inhibition of IgE binding (IgE binding to GluB3-23; [8]): 100.0%; % inhibition of IgE binding (IgE binding to GluB3-23; [9]): 93.8%
α-purothionin: clone 84-derived wheat allergen expressed as recombinant protein with C-terminal hexahistidine tag in E. coli (protein, listed as Triticum aestivum, C-terminal His6 tag, clone 84-derived wheat allergen expressed as recombinant protein with C-terminal hexahistidine tag in E. coli) LSSGLSCPKGFPKLALESNSDEPDTIEYCNLGCRSSVCDYMVNAAADDEEMKLYVENCADACVSFCNGDAGLPSLDAY | negative |  |  |  |  |  | patients reacting to the recombinant protein (IgE) ([3]; another population (n=24)): 29%; patients reacting to the recombinant protein (IgE) ([3]; one population (n=13)): 23%
GG2: recombinant gamma gliadin 2 with 6×Histidine at the C terminal end, expressed in E. coli (protein) MNIQVDPSSQVQWPQQQPVPQPHQPFSQQPQQTFPQPQQTFPHQPQQQFPQPQQPQQQFLQPQQPFPQQPQQPYPQQPQQPFPQTQQPQQLFPQSQQPQQQFSQPQQQFPQPQQPQQSFPQQQPPFIQPSLQQQVNPCKNFLLQQCKPVSLVSSLWSMIWPQSDCQVMRQQSCQQLAQIPQQLQCAAIHTVIHSIIMQQEQQQGMHILLPLYQQQQVGQGTLVQGQGIIQPQQPAQLEAIRSLVLQTLPTMCNVYVPPECSIIKAPFSSVVAGIGGQYRHHHHHH | high |  |  |  |  |  | IgA reactivity, DH patients versus healthy controls [1]: higher IgA reactivity to sera from DH patients than to healthy controls

From patent US20140037661A1, “Wheat Antigens and Peptides for Diagnosis of Wheat Induced Hypersensitivity” (PHADIA AB, priority 2011, published 2014)
